Experiments:
[1] = biological target: T1, human Frizzled-10 (FZD10) (human, UniProt Q9ULW2 21-581); experiment: saturation binding of recombinant antibody on SYO-1 cells (FZD10+), flow cytometry MFI against Ab (nM)
T1 construct: no signal peptide limits are stated; also called FZ10; CD350
T1 sequence: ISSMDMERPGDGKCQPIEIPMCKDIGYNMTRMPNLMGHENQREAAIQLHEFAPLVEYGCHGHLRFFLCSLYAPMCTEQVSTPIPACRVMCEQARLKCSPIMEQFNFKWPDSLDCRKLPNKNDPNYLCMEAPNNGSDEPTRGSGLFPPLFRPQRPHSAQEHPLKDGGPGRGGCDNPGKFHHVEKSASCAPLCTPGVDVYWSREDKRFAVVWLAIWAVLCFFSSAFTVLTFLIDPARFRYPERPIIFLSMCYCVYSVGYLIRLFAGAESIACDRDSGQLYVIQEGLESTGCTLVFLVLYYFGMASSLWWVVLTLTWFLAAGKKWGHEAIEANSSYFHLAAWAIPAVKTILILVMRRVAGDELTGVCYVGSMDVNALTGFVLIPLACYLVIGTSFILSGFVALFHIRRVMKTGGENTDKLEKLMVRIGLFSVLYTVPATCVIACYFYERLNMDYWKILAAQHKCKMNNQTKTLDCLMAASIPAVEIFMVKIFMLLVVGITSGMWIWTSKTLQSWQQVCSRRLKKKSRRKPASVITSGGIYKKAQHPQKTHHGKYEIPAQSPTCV
Description: Affinity was determined by measuring saturation binding kinetics of the recombinant antibodies on SYO-1 cells.

[2] = biological target: T1, human Frizzled-10 (FZD10); experiment: saturation binding of recombinant antibody on SYO-1 cells; Table 2 comparison with the humanized antibody
[3] = biological target: T1, human Frizzled-10 (FZD10); experiment: saturation binding on SYO-1 cells, flow cytometry; B9L9.3 on SYO-1 cells, Example 1 (FIG. 3)
Description: (§1) Recombinant antibodies were generated by cloning PCR-amplified V regions (Cummings et al., 2007 Supra) into a vector that supported expression of human IgG1 in 293F cells. Saturation binding kinetics were determined by either staining FZD10-specific DTLacO cells with various concentrations of fluorescent-labeled soluble antigen, or by staining FZD10-transfected cells or cancer cell lines intrinsically expressing FZD10 with various concentrations of the recombinant chimeric anti-FZD10 mAbs. To assay cell surface FZD10 binding, cells were stained with chimeric mAb clones B9A5 (parent), B9132.2 and B9L9.3 (progeny) or secondary antibody alone, all at concentrations ranging from […] to 800 nM, and analyzed by immunocytofluorimetry.

[4] = biological target: T1, human Frizzled-10 (FZD10); experiment: saturation binding on SYO-1 cells, flow cytometry; B9L32.2 on SYO-1 cells
Description: as §1

[5] = biological target: T1, human Frizzled-10 (FZD10); experiment: saturation binding of recombinant antibody on SYO-1 cells

B1: chimeric anti-FZD10 mAb B9L9.3 (antibody, V domains shown)
VH: AVTLDESGGGLQTPGGALSLVCKASGFTFSSFNMFWVRQEPGKGLEWVAGIDDDGSYPNYGSAVKGRATISRDNGQSTLRLQLNNLRAEDTGTYFCAKSGYGGSWGGYIADDIDAWGHGTEVIVSS
VL: ALTQPASVSANPGETVKITCSGDGSYAGSYYYGWYQQKAPGSAPVTLIYYNNKRPSDIPSRFSGSLSGSTNTLTITGVRADDEAVYFCGSADNSGAAFGAGTTLTVL
notes: also called Chimeric B9L9.3; progeny clone B9L9.3
With B1 the “EC50 (read off the curve)” value [1] was about 0.1 nM, the Kd [2] was 0.16 nM and the Kd [3] was 0.22 nM.

B2: chimeric anti-FZD10 mAb B9L32.2 (antibody, human IgG1, V domains shown)
VH: B1 VH
VL: ALTQPASVSANPGETVKITCSGSDSSYAGSYYYGWYQQKAPGSAPVTLIYYNNKRPSDIPSRFSGSLSGSTNTLTITGVRADDEAVYFCGSADNSGAAFGAGTTLTVL
notes: also called progeny clone B9L32.2
B2 gave a Kd [4] of 40 nM.

B3: humanized B9L9.3 antibody (antibody, human IgG1, lambda, V domains shown)
VH: EVQLVESGGGLVQPGGSLRLSCAASGFTFSSFNMFWVRQAPGKGLEWVAGIDDDGSYPNYGSAVKGRATISRDNSKNTLYLQMNSLRAEDTAVYYCAKSGYGGSWGGYIADDIDAWGQGTLVTVSS
VL: ELTQPPSVSVSPGQTARITCSGDGSYAGSYYYGWYQQKPGQAPVTLIYYNNKRPSGIPERFSGSLSGSTNTLTISGVQAEDEADYYCGSADNSGAAFGGGTKLTVLG
notes: Mature humanized heavy chain with human IgG1 constant region and mature humanized light chain with human lambda constant region; also called hB9L9.3; humanized B9L9.3 mAb
In the case of B3, the Kd [5] is reported as 0.22 nM and the “EC50 (read off the curve)” value [1] is reported as about 0.2 nM.

— US20130095104A1 (OMEROS, published 2013)
